This is an account of results in US20260167721A1 (ABLEXIS, published 2026).

For assay [1], the target named is T1, recombinant human CD3 epsilon/gamma heterodimer (human, UniProt P07766 23-126; P09693 23-116).
T1 construct: Recombinant protein in solution (200-50 nM) in the Octet assay; also called hCD3 E/G
Kind of assay: Octet BLI, mAb on FAB2G sensor, hCD3 E/G 200-50 nM; R^2 0.84.
Description: (§1) Samples were evaluated by flow cytometry analysis against Jurkat and human Pan-T cells (FIG. 1B) as well as by Octet against recombinant human CD3 proteins to evaluate apparent affinities and binding off-rates (Table 6, infra).

The target in assay [2] is T2, recombinant human CD3 epsilon/delta heterodimer (human, UniProt P07766 23-126; P04234 22-105).
T2 construct: Recombinant protein in solution (200-50 nM) in the Octet assay; also called hCD3 E/D; human CD3E/D
T2 sequence (P07766 23-126, stated change not applied, chain 1 of 2): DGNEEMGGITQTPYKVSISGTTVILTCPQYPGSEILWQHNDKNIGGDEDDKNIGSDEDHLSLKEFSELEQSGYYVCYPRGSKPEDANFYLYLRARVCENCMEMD
T2 sequence (P04234 22-105, stated change not applied, chain 2 of 2): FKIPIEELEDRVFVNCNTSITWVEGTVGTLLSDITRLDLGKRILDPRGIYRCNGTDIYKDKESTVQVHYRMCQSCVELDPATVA
Description: Octet BLI, mAb on FAB2G sensor, hCD3 E/D 200-50 nM; R^2 1.00.

The target in assay [3] is T3, CD3 on Jurkat wild-type cells (UniProt P07766 23-207; P04234 22-171; P09693 23-182).
T3 construct: whole, on cells; also called Jurkat WT
T3 sequence (P07766 23-207, chain 1 of 3): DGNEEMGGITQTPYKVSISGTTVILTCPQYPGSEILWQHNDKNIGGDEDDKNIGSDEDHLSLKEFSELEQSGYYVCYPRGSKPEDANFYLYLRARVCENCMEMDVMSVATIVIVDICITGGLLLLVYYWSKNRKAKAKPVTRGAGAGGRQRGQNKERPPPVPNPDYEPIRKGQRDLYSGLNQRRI
T3 sequence (P04234 22-171, chain 2 of 3): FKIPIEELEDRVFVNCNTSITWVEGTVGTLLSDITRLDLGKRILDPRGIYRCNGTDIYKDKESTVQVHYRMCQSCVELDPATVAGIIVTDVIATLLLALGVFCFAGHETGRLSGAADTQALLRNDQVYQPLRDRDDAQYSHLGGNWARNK
T3 sequence (P09693 23-182, chain 3 of 3): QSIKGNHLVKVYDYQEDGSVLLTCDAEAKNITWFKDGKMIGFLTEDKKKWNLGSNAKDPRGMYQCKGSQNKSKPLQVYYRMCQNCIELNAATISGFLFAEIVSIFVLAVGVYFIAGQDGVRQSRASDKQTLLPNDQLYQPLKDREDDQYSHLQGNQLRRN
Kind of assay: flow cytometry on Jurkat WT cells, antibody at 10 ug/ml.

Assay [4] concerns the target T4, CD33 on KILR-HL60 cells (UniProt P20138 18-364, limits assumed).
T4 construct: whole, on cells; Target of the gemtuzumab arm; also called CD33 expressing cells
Kind of assay: flow cytometry on KILR-HL60 (CD33 expressing) cells, antibody at 1 ug/ml.

Assay [5] has as its target T3, CD3 on Jurkat wild-type cells. Description: flow cytometry on Jurkat WT cells, antibody at 1 ug/ml.
The target in assay [6] is T4, CD33 on KILR-HL60 cells. Kind of assay: flow cytometry on KILR-HL60 (CD33 expressing) cells, antibody at 10 ug/ml.
For assay [7], the target named is T2, recombinant human CD3 epsilon/delta …. Description: Octet BLI, mAb on FAB2G sensor, hCD3 E/D 200-50 nM; R^2 0.99.
Assay [8] shares this target. Kind of assay: Octet BLI, mAb on FAB2G sensor, hCD3 E/D 200-50 nM; R^2 0.97.
Description: as §1

Numbering of substitutions follows the chain as printed. Names may count otherwise.

T4 sequence (P20138 18-364 limits assumed): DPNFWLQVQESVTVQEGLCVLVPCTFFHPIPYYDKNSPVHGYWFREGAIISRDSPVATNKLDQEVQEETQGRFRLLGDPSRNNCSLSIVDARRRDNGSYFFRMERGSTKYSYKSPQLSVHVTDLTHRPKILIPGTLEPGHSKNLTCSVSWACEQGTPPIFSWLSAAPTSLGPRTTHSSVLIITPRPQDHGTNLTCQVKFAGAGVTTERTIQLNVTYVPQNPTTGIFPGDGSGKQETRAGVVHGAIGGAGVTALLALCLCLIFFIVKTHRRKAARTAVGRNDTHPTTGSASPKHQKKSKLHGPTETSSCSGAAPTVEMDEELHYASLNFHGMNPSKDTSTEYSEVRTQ
T1 sequence (P07766 23-126, chain 1 of 2): as the sequence (P07766 23-126, stated change not applied, chain 1 of 2) above
T1 sequence (P09693 23-116, chain 2 of 2): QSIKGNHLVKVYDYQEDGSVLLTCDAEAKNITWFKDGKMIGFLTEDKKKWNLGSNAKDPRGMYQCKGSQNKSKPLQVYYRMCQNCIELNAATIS

B1: ABL-CD3-45 (antibody, V domains shown)
VH: EVQLVESGGGLVQPGGSLRLSCAASGFTFSSYWMSWVRQAPGKGLEWVANIKEDGSEKYYVDSVKGRFTISRDNAKNSLYLQMNSLRAEDTAVYYCARERRTGYLDYWGQGTLVTVSS
VL: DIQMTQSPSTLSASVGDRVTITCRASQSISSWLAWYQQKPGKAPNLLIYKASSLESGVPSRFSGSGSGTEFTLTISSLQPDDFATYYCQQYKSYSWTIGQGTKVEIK
notes: Chimeric hybridoma mAb: human V, CH1, upper hinge; mouse middle hinge, CH2, CH3
Regarding B1, in assay [1], the Kd was found to be 15.8 nM, the Response came to 0.03, the koff came out at 0.00375 s⁻¹ and the kon amounted to 237000 M⁻¹ s⁻¹. Moreover, in assay [2], the Kd was found to be 13.7 nM, the Response stood at 0.2, the koff was 0.000475 s⁻¹ and the kon was found to be 34600 M⁻¹ s⁻¹.

B2: Control Humanized anti-CD3 (low affinity) scFv-Fc knob/TM x gemtuzumab (bispecific antibody)
scFv: EVQLVESGGGLVQPGGSLRLSCAASGFTFSTYAMNWVRQAPGKGLEWVGRIRSKYNNYATYYADSVKGRFTISRDDSKNTLYLQMNSLRAEDTAVYYCVRHGNFGDSYVSWFDYWGQGTLVTVSSGKPGSGKPGSGKPGSGKPGSQAVVTQEPSLTVSPGGTVTLTCGSSTGAVTTSNYANWVQQKPGKSPRGLIGGTNKRAPGVPARFSGSLLGGKAALTISGAQPEDEADYYCALWYSNHWVFGGGTKLTVLGGGGSDKTHTCPPCPAPEFEGGPSVFLFPPKPKDTLMISRTPEVTCVVVDVSHEDPEVKFNWYVDGVEVHNAKTKPREEQYNSTYRVVSVLTVLHQDWLNGKEYKCKVSNKALPASIEKTISKAKGQPREPQVYTLPPCREEMTKNQVSLWCLVKGFYPSDIAVEWESNGQPENNYKTTPPVLDSDGSFFLYSKLTVDKSRWQQGNVFSCSVMHEALHNHYTQKSLSLSPGK
heavy: EVQLVQSGAEVKKPGSSVKVSCKASGYTITDSNIHWVRQAPGQSLEWIGYIYPYNGGTDYNQKFKNRATLTVDNPTNTAYMELSSLRSEDTAFYYCVNGNPWLAYWGQGTLVTVSSASTKGPSVFPLAPSSKSTSGGTAALGCLVKDYFPEPVTVSWNSGALTSGVHTFPAVLQSSGLYSLSSVVTVPSSSLGTQTYICNVNHKPSNTKVDKRVEPKSCDKTHTCPPCPAPEFEGGPSVFLFPPKPKDTLMISRTPEVTCVVVDVSHEDPEVKFNWYVDGVEVHNAKTKPREEQYNSTYRVVSVLTVLHQDWLNGKEYKCKVSNKALPASIEKTISKAKGQPREPQVCTLPPSREEMTKNQVSLSCAVKGFYPSDIAVEWESNGQPENNYKTTPPVLDSDGSFFLVSKLTVDKSRWQQGNVFSCSVMHEALHNRFTQKSLSLSPGK
light: DIQLTQSPSTLSASVGDRVTITCRASESLDNYGIRFLTWFQQKPGKAPKLLMYAASNQGSGVPSRFSGSGSGTEFTLTISSLQPDDFATYYCQQTKEVPWSFGQGTKVEVKRTVAAPSVFIFPPSDEQLKSGTASVVCLLNNFYPREAKVQWKVDNALQSGNSQESVTEQDSKDSTYSLSSTLTLSKADYEKHKVYACEVTHQGLSSPVTKSFNRGEC
With B2, the flow cytometry signal in assay [3] stood at 3230; with CD33 on KILR-HL60 cells [4], 535000; in assay [5] it was 2620; with CD33 on KILR-HL60 cells [6], 623000.

B3: Gemtuzumab (antibody, V domains shown)
VH: EVQLVQSGAEVKKPGSSVKVSCKASGYTITDSNIHWVRQAPGQSLEWIGYIYPYNGGTDYNQKFKNRATLTVDNPTNTAYMELSSLRSEDTAFYYCVNGNPWLAYWGQGTLVTVSS
VL: DIQLTQSPSTLSASVGDRVTITCRASESLDNYGIRFLTWFQQKPGKAPKLLMYAASNQGSGVPSRFSGSGSGTEFTLTISSLQPDDFATYYCQQTKEVPWSFGQGTKVEVKR
notes: the heavy chain entry carries the hole, H435R/Y436F and L234F/L235E/P331S changes, which the control may not have; also called anti-CD33 control antibody
Turning to B3, the flow cytometry signal in assay [3] worked out at 2570; with CD33 on KILR-HL60 cells [4], 321000; in assay [5], 2570; with CD33 on KILR-HL60 cells [6], 351000.

B4: ABL-CD3-9 (antibody, V domains shown)
VH: EVQLVDSGGGLVKPGGSLRLSCAASGFTFSSYSMNWVRQAPGKGLEWVSSVNSRGSYIYYADSVKGRFTISRDNAKNSLYLQMNSLRADDTAVYYCARDRRELLLDYWGQGTLVTVSS
VL: SYELTQPPSVSVSPGQTARITCSGDALPKKYAYWYQQKSGQAPVLVIYEDSKRPSGIPERFSGSSSGTMATLTISGAQVEDEADYYCYSTDSSGNHCWVFGGGTKLTVL
notes: as for B1
Take B4: in assay [1], the Kd turned out to be 110 nM, the Response came out at 0.1, the dissociation rate constant (koff) stood at 0.114 s⁻¹ and the on-rate (kon) was determined as 1.04e+06 M⁻¹ s⁻¹. Moreover, in assay [7], the equilibrium dissociation constant (Kd) was 70.8 nM, the Response stood at 0.34, the koff worked out at 0.0393 s⁻¹ and the kon was 555000 M⁻¹ s⁻¹.

B5: ABL-CD3-35 (antibody, V domains shown)
VH: B4 VH with D6E, N77D
VL: B4 VL
notes: as for B1
For the molecule B5, in assay [1], the Kd came out at 14.2 nM, the Response stood at 0.12, the koff stood at 0.0144 s⁻¹ and the kon was determined as 1.02e+06 M⁻¹ s⁻¹. Moreover, in assay [8], the Kd worked out at 54.7 nM, the Response was 0.36, the dissociation rate constant (koff) worked out at 0.0271 s⁻¹ and the kon worked out at 495000 M⁻¹ s⁻¹.
